For three molecules, Kd, koff and kon results are on record in patent US9327022 (NATIONAL RESEARCH COUNCIL OF CANADA, dated 2016).

Assay [1] addresses T1, bovine serum albumin (bovine, UniProt P02769 25-607).
T1 construct: also called BSA; Bovine albumin
As to the kind of experiment: SPR (Biacore 3000), immobilized BSA. A general note: In SPR one partner is held on a chip, and binding of the other changes the refractive index at the surface.
Method: (§1) 1700 RUs of BSA (Sigma) were immobilized on research grad CM5-sensorchip (BIACORE). Ethanolamin blocked surface was used as a reference. Immobilizations were carried out at the protein concentrations of 50 µg/ml in 10 mM acetate pH 4.5 using amin coupling kit supplied by the manufacturer. Antibodies were passed through Superdex 75™ (GE Healthcare) column to separate monomer prior to BIACORE analysis.
(§2) In all instances, analyses were carried out at 25 C in HBS-E buffer (10 mM HEPES, 150 mM NaCl, and 3 mM EDTA, pH 7.4) supplemented with 0.005% surfactant P20 at a flow rate of 20 µl/min. The surfaces were regenerated with 100 mM HCl (3 seconds). Data were analyzed with BIAevaluation 4.1 software.

In assay [2] the target is T1, bovine serum albumin. Briefly: SPR (Biacore 3000), immobilized BSA. This is another data set of the same source.
Method: as §1, §2
Assay [3] addresses T2, human serum albumin (human, UniProt P02768 25-609).
T2 construct: also called Human albumin
Briefly: SPR (Biacore 3000), immobilized albumin; lower bound of the printed KD range.

Assay [4] concerns the target T2, human serum albumin. Briefly: SPR (Biacore 3000), immobilized albumin; upper bound of the printed KD range.
For assay [5], the target named is T3, sheep serum albumin (sheep, UniProt P14639 25-607).
T3 construct: also called Sheep albumin
T3 sequence (P14639 25-607 limits assumed): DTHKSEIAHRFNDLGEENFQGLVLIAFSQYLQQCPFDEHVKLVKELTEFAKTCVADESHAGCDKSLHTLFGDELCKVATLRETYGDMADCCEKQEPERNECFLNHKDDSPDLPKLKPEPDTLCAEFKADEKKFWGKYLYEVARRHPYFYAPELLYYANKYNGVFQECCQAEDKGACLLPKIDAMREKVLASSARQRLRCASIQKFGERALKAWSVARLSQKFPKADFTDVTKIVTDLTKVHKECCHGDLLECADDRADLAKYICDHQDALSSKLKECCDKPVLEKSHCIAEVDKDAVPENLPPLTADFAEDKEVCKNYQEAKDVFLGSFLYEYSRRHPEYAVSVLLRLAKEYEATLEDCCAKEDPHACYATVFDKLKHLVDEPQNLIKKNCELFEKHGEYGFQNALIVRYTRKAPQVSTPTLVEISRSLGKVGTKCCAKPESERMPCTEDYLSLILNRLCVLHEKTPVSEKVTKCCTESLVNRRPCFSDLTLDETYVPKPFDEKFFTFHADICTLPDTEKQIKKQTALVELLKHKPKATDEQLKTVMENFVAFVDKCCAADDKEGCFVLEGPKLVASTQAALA
As to the kind of experiment: SPR (Biacore 3000), immobilized albumin.
Method: as §1, §2

For assay [6], the target named is T4, guinea pig serum albumin (guinea pig).
T4 construct: also called Guinea pig albumin
As to the kind of experiment: SPR (Biacore 3000), immobilized albumin.
Method: as §1, §2

Assay [7] concerns the target T5, porcine serum albumin (porcine, UniProt P08835 25-607).
T5 construct: also called Porcine albumin
As to the kind of experiment: SPR (Biacore 3000), immobilized albumin.
Method: as §1, §2

Assay [8] concerns the target T6, goat serum albumin (goat).
T6 construct: also called Goat albumin
T6 sequence (P85295 whole entry, looked up): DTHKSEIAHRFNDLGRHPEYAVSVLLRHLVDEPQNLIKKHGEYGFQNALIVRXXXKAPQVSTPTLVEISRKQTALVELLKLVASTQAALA
Briefly: SPR (Biacore 3000), immobilized albumin.
Method: as §1, §2

For assay [9], the target named is T7, murine serum albumin (murine, UniProt P07724 25-608).
T7 construct: also called Murine albumin
Briefly: SPR (Biacore 3000), immobilized albumin.
Method: as §1, §2

The target of assay [10] is T8, canine serum albumin (canine, UniProt P49822 25-608).
T8 construct: also called Canine albumin
T8 sequence (P49822 25-608 limits assumed): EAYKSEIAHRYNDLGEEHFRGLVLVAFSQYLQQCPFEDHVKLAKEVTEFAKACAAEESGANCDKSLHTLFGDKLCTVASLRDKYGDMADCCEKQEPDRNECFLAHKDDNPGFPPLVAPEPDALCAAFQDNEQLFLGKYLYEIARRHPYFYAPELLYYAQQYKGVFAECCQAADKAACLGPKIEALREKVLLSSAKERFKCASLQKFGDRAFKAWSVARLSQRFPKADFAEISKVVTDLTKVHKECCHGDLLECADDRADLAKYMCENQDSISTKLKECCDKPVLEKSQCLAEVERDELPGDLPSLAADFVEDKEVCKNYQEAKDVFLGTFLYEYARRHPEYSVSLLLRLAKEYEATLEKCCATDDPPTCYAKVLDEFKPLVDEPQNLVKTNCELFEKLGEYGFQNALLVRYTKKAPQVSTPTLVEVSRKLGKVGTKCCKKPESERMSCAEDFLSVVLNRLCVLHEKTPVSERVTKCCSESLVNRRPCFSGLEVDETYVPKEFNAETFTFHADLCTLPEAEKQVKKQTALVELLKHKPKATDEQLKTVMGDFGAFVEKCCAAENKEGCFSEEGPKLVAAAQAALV
Briefly: SPR (Biacore 3000), immobilized albumin.
Method: as §1, §2

Assay [11] has as its target T1, bovine serum albumin. As to the kind of experiment: SPR (Biacore 3000), immobilized albumin.
Method: as §1, §2
For assay [12], the target named is T1, bovine serum albumin. Briefly: SPR (Biacore 3000), immobilized BSA, extended dissociation.
Method: as §1, §2
(§3) Each binding was performed three times, and the obtained data were reproducible.
The target of assay [13] is T1, bovine serum albumin. As to the kind of experiment: SPR (Biacore 3000), immobilized BSA, 4 h dissociation time.
Method: as §1, §2, §3

As a reminder, the Kd is the equilibrium constant for the complex coming apart. A lower Kd goes with tighter binding. By koff is commonly meant the first-order rate constant of dissociation. Lower therefore signals slow dissociation. Broadly, the kon is a measure of how fast the partners come together.

T1 sequence (P02769 25-607 limits assumed): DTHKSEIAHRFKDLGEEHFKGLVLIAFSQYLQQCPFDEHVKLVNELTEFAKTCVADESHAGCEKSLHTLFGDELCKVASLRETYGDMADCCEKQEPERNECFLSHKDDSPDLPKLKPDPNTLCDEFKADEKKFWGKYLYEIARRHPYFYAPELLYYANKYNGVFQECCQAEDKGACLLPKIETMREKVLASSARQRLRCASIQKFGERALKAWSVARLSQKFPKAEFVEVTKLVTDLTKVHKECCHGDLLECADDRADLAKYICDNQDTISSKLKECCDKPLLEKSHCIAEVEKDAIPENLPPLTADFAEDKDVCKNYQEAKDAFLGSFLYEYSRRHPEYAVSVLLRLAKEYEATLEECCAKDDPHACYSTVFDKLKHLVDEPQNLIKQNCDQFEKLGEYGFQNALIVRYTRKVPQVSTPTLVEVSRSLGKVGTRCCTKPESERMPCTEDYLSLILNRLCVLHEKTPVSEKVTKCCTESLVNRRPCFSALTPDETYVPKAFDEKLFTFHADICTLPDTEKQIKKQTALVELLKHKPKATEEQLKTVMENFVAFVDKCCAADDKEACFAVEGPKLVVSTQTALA
T5 sequence (P08835 25-607 limits assumed): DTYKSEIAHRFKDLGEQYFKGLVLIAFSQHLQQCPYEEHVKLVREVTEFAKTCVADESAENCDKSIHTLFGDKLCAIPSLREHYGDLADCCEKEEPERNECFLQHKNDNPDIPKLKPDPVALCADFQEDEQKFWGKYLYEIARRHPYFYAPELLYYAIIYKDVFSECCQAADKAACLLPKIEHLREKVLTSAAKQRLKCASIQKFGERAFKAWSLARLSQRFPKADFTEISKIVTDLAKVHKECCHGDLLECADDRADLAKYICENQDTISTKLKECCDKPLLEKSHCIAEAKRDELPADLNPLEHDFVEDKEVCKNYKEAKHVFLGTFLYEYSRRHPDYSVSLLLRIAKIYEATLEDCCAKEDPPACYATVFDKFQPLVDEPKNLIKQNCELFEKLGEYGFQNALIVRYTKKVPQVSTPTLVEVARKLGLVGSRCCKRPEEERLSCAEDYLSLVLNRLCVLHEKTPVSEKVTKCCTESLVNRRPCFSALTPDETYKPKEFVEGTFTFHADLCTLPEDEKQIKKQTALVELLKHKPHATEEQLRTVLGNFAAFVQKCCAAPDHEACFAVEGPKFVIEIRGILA
T2 sequence (P02768 25-609 limits assumed): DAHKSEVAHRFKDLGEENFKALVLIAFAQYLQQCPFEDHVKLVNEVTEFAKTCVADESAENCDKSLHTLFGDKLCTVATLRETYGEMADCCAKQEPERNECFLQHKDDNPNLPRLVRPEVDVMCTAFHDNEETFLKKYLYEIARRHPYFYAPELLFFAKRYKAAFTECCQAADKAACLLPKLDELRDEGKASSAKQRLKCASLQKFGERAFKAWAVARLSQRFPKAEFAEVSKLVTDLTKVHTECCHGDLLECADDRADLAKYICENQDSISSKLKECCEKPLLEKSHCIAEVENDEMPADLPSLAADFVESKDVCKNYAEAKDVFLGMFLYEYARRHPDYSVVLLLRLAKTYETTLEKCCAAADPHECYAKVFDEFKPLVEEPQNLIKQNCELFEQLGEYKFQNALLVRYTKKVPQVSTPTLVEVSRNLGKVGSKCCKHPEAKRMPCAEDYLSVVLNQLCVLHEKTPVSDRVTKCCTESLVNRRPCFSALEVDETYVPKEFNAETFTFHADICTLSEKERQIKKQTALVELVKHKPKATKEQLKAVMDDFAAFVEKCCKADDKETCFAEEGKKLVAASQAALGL

B1: BSA8 (VHH)
VHH: QVKLEESGGGLAQAGGSLRLSCAASERTFIRYTIGWFRQAPGKEREFVGRVNWSGGDTYYADSVKGRFTISRDNAKTTVTLQMSSLKPEDTAVYSCAASPKWSEIPREYIYWGPGTQVTVSS
notes: also called sdAb BSA8; pBSA8 product
As for B1, the Kd in assay [1] is ~100 nM. In [2], this molecule came in with a koff of 0.005 s⁻¹.

B2: BSA12 (VHH)
VHH: QVKLEESGGGLVQVGDSLRLSCAASGRTFSNYTMAWFRQFPGKEREFVAVVSRGGGATDYADSVKGRFTISRDNAKNTMYLQMNSLKTDTAVYYCAAGTDLSYYYSTKKWAYWGQGTQVTVSS
notes: also called sdAb BSA12; pBSA12 product
On to B2, for which the Kd was > 10000 nM in assay [3]; 0.004 nM in assay [1]; < 500000 nM in [4]; 1000 nM in [5]; 730 nM in assay [6]; 380 nM in assay [7]. The Kd in assay [8] was determined as 240 nM; in [9] it was 59 nM; in assay [10], 1400 nM; in assay [11], 0.0036 nM. Also, the kon in assay [1] turned out to be 2.5e+06 M⁻¹ s⁻¹; in [6], 830000 M⁻¹ s⁻¹; in assay [7] it was 680000 M⁻¹ s⁻¹; in assay [8], 1.2e+06 M⁻¹ s⁻¹; in [9], 2.7e+06 M⁻¹ s⁻¹; in assay [11] it was 2.5e+06 M⁻¹ s⁻¹. Also, the koff in assay [6] worked out at 0.6 s⁻¹; in assay [7], 0.22 s⁻¹; in assay [8], 0.3 s⁻¹; in assay [9] it was 0.16 s⁻¹; in assay [11], 9e-06 s⁻¹; in [12] it was 1e-05 s⁻¹. The molecule also displayed a koff in assay [13] of 9e-06 s⁻¹.

B3: BSA16 (VHH)
VHH: QVKLEESGGGLVQAGGSLRLSCAPSGRTFRTWRMGWFRQAPGKEREFVAAINLNTGNTYYVDSVKGRFTISGDYAKNTLYLQMNSLKPEDTAVYFCAARSPDSDYVPLSSIDYQYWGQGTQVTVSS
notes: also called sdAb BSA16; pBSA16 product
For B3, in [1], the Kd was found to be 280 nM, the koff came out at 0.27 s⁻¹ and the kon was found to be 1e+06 M⁻¹ s⁻¹.
